Biological target: T1, 6xHis-MPK3 (rice, UniProt Q10N20 1-369)
T1 sequence (looked up): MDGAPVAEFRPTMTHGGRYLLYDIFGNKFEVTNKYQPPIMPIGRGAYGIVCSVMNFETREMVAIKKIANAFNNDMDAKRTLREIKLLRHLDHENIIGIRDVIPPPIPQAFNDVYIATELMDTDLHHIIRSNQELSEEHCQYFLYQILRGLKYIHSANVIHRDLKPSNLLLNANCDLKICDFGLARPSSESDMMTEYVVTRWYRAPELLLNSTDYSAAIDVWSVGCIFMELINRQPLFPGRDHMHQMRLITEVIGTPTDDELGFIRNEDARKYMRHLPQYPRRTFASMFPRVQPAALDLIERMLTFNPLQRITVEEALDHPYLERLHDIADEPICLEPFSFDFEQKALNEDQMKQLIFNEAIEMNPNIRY
Test: pull-down

B1: GST-KRP3 (natural protein, rice (Oryza sativa), UniProt Q2R185 1-225, looked up)
chain: MGKYLRSSCKQQQQPSSPAAVASVAAAAVSSYSYLTLRSGRRVPAAAAAAGGSACRRRHRRGGRRGCAKNGAGSARACGARSPTSSASSGQRRRCEAVECSHGGGRAELSRSPPLGNSVVVVSGDVVSGERKSLKPNSCSREVAAEHAGEHKHNPAAAAAAGRRPPLSPPEAEIEAFFAAAELAERRRFAEKYNYDIALDRPLQGRYEWEPTVPNFDVAKDVTDM
- binding result: binds

Source: doi:10.1101/2024.04.18.590116 (bioRxiv, 2024)
